T1: recombinant mouse FcRn (mouse, UniProt Q61559 22-297; P01887 21-119)
T1 sequence 1: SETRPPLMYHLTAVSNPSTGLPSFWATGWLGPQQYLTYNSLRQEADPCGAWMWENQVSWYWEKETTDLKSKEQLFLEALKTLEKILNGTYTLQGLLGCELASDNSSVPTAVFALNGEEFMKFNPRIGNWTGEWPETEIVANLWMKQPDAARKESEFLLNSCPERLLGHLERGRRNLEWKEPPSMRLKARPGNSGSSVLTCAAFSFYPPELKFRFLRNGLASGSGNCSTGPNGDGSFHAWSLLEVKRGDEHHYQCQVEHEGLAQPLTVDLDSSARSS
T1 sequence 2: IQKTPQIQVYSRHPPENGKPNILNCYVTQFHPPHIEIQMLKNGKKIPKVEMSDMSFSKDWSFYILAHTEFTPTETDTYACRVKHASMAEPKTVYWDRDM


Columns and labels:
[1] = molecular target: T2, CHIKV Caribbean strain, Asian lineage (envelope protein E2 on virus) (Chikungunya virus); assay: cell-based or functional assay
[2] = molecular target: T3, CHIKV La Reunion (LR) strain, ECSA lineage (envelope protein E2 on virus) (Chikungunya virus); assay: cell-based or functional assay
[3] = molecular target: T4, CHIKV 37997 strain, West African lineage (envelope protein E2 on virus) (Chikungunya virus); assay: cell-based or functional assay
[4] = molecular target: T2, CHIKV Caribbean strain, Asian lineage …; assay: cell-based or functional assay; remark: listed apart in the source
[5] = molecular target: T3, CHIKV La Reunion (LR) strain, ECSA …; assay: cell-based or functional assay; remark: listed apart in the source
[6] = molecular target: T4, CHIKV 37997 strain, West African …; assay: cell-based or functional assay; remark: listed apart in the source
[7] = molecular target: T5, recombinant human FcRn (human, UniProt P55899 24-297; P61769 21-119); assay: SPR, human FcRn immobilised; relative to mAb1
T5 construct: also called human FcRn receptor

[8] = molecular target: T1, recombinant mouse FcRn; assay: SPR, mouse FcRn immobilised; relative to mAb1
[9] = molecular target: T5, recombinant human FcRn; assay: SPR (Biacore T200), human FcRn immobilised on CM5 chip
[10] = molecular target: T1, recombinant mouse FcRn; assay: SPR (Biacore T200), mouse FcRn immobilised on CM5 chip
[11] = molecular target: Antigen (E2) (Chikungunya virus); assay: SPR (Biacore T200), His-tagged antigen captured by anti-His antibody, 1:1 model
[12] = molecular target: T6, Recombinant human HPC4-tagged FcγRIII-F158 (human, UniProt P08637 17-208); assay: SPR (Biacore 3000), HPC4-tagged FcγRIII-F158 captured on anti-HPC4 CM5 chip, antibody injected 2 min, in duplicate; concentration (900, 300 or 100 nM in the methods) not printed on the sheet
T6 construct: also called FcγRIIIaF158; not shown: HPC4 tag

[13] = molecular target: T7, Recombinant human HPC4-tagged FcγRIIIa-V158 (human, UniProt P08637 17-208); assay: SPR (Biacore 3000), HPC4-tagged FcγRIIIa-V158 captured on anti-HPC4 CM5 chip, antibody injected 2 min, in duplicate; concentration (900, 300 or 100 nM in the methods) not printed on the sheet
T7 construct: Valine at 158 is a polymorphism, named without an old residue; also called Val158; not shown: HPC4 tag
T7 sequence (P08637 17-208 F176V): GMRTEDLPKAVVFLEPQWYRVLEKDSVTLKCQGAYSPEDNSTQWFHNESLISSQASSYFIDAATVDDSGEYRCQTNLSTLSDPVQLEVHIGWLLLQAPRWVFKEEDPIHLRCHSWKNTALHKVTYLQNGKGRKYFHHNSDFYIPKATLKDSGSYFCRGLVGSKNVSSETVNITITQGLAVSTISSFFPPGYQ

T5 sequence (P55899 24-297 limits assumed, chain 1 of 2): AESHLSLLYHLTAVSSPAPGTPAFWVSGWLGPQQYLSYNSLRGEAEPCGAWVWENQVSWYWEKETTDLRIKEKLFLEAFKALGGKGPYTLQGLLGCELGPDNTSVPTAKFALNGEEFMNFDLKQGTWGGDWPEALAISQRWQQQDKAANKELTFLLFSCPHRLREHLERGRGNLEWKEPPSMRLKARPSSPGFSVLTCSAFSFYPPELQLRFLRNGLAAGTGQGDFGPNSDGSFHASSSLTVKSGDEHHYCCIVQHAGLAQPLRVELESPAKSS
T5 sequence (P61769 21-119 limits assumed, chain 2 of 2): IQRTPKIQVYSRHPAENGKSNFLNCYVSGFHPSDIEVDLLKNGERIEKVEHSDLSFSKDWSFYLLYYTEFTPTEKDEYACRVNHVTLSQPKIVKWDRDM
T6 sequence (P08637 17-208): as the sequence (P08637 17-208 F176V) above, with V160F counted along it

Binder	EC50, plaque reduction neutralization [1]	EC50, plaque reduction neutralization [2]	EC50, plaque reduction neutralization [3]	In vitro neutralization - EC50 (ng/ml), plaque reduction assay on Vero cells [4]	In vitro neutralization - EC50 (ng/ml), plaque reduction assay on Vero cells [5]	In vitro neutralization - EC50 (ng/ml), plaque reduction assay on Vero cells [6]	Affinity Increase (fold) [7]	Affinity Increase (fold) [8]	Kd [9]	Kd [10]	Kd [11]	binding result [12]	binding result [13]
mAb1 (antibody, also called parent antibody mAb1) heavy: not shown light: QAVVTQPPSVSGAPGQRVTISCTGSSSNIGADYNVHWYQLLPGTAPKLLIYGNTNRPSGVPDRFSGSKSGTSASLAITGLQAEDEADYYCQSYDSSLSASVFGGGTKLTVLGQPKAAPSVTLFPPSSEELQANKATLVCLISDFYPGAVTVAWKADSSPVKAGVETTTPSKQSNNKYAASSYLSLTPEQWKSHRSYSCQVTHEGSTVEKTVAPTECS	< 10 ng/mL	< 10 ng/mL	< 10 ng/mL	7.6 ng/mL	3.9 ng/mL	4.8 ng/mL	1 fold	1 fold	348 nM	20 nM	0.13 nM	binds	binds
mAb7 (antibody, also called mAb1LS) heavy: not shown light: QAVVTQPPSVSGAPGQRVTISCTGSSSNIGADYNVHWYQLLPGTAPKLLIYGNTNRPSGVPDRFSGSKSGTSASLAITGLQAEDEADYYCQSYDSSLSASVFGGGTKLTVLGQPKAAPSVTLFPPSSEELQANKATLVCLISDFYPGAVTVAWKADSSPVKAGVETTTPSKQSNNKYAASSYLSLTPEQWKSHRSYSCQVTHEGSTVEKTVAPTECS	< 1 ng/mL	< 1 ng/mL	< 1 ng/mL	0.6 ng/mL	0.3 ng/mL	0.2 ng/mL	23.8 fold	3.4 fold	15 nM	5.9 nM	0.17 nM	binds	binds
